Here are results for four molecules from paper PMC10213050 (Nature Communications, 2023).

B1: 6xHis-hRad51 (natural protein, human, UniProt Q06609 1-339, looked up)
chain: MAMQMQLEANADTSVEEESFGPQPISRLEQCGINANDVKKLEEAGFHTVEAVAYAPKKELINIKGISEAKADKILAEAAKLVPMGFTTATEFHQRRSEIIQITTGSKELDKLLQGGIETGSITEMFGEFRTGKTQICHTLAVTCQLPIDRGGGEGKAMYIDTEGTFRPERLLAVAERYGLSGSDVLDNVAYARAFNTDHQTQLLYQASAMMVESRYALLIVDSATALYRTDYSGRGELSARQMHLARFLRMLLRLADEFGVAVVITNQVVAQVDGAAMFAADPKKPIGGNIIAHASTTRLYLRKGRGETRICKIYDSPCLPEAEAMFAINADGVGDAKD
notes: human Rad51 recombinase; also called recombinant hRad51; source: E. coli BL21 (DE3), purified (Ni-NTA)

Conditions in all cases: both partners purified
One test addresses T1, GST-RNF20 (human, UniProt Q5VTR2 1-975).
T1 construct: RNF20, human homolog of Bre1; an asterisk marks the full-length band on the gel; also called full-length GST-RNF20
Nature of the test: pull-down; GST-tagged Bre1 (WT, truncated or mutant) or GST-RNF20 on glutathione agarose beads, incubated with 6xHis-tagged Rad51, hRad51 or FBH1 at 4 °C for 4 h; wash 20 mM Tris-HCl pH 7.4, 200 mM NaCl; Western blot or Coomassie. (In western blotting, separated proteins are transferred to a membrane and probed.)

For the test “6xHis-hRad51”, the target named is B1. Nature of the test: pull-down; ssDNA pull-down: 5'-biotinylated 90-nt ssDNA on streptavidin magnetic beads, yeast or human Rad51 bound first, then Bre1 or RNF20N added; 37 °C; 42 mM Tris-HCl pH 7.5, 15 mM KCl, 90 mM NaCl, 2 mM ATP; Bre1 or RNF20N alone did not bind the ssDNA.
Another test concerns the target T2, 6xHis-Bre1 (yeast (Saccharomyces cerevisiae), UniProt Q07457 1-700).
T2 construct: Bre1, yeast ubiquitin E3 ligase; also called WT Bre1; wild-type Bre1; source: E. coli BL21 (DE3), purified (Ni-NTA)
T2 sequence (looked up): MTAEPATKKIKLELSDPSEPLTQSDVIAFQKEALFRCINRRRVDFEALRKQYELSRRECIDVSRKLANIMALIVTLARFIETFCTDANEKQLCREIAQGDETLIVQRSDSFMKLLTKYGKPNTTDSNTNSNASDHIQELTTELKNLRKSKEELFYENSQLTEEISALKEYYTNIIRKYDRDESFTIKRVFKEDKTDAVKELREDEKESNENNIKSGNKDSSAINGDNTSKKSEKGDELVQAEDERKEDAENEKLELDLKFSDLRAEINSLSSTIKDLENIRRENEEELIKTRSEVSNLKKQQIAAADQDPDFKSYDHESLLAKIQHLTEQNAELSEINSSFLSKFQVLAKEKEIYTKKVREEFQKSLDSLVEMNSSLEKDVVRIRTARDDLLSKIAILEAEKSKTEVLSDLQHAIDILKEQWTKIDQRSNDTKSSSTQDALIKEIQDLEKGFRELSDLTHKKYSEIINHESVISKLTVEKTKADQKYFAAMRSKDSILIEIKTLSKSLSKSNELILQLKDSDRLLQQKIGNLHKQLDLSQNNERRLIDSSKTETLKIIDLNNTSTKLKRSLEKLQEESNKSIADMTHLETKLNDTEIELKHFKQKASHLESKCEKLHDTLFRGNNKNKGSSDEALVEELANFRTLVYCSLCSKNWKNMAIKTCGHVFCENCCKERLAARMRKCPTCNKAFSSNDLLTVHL
Described as above.

The target in a further test is T3, GST-Bre1 (yeast (Saccharomyces cerevisiae), UniProt Q07457 1-700).
T3 construct: Bre1, yeast ubiquitin E3 ligase; RBD 1-210, linker 211-614, RING 615-700; also called GST-tagged WT Bre1; recombinant GST-Bre1
T3 sequence (looked up): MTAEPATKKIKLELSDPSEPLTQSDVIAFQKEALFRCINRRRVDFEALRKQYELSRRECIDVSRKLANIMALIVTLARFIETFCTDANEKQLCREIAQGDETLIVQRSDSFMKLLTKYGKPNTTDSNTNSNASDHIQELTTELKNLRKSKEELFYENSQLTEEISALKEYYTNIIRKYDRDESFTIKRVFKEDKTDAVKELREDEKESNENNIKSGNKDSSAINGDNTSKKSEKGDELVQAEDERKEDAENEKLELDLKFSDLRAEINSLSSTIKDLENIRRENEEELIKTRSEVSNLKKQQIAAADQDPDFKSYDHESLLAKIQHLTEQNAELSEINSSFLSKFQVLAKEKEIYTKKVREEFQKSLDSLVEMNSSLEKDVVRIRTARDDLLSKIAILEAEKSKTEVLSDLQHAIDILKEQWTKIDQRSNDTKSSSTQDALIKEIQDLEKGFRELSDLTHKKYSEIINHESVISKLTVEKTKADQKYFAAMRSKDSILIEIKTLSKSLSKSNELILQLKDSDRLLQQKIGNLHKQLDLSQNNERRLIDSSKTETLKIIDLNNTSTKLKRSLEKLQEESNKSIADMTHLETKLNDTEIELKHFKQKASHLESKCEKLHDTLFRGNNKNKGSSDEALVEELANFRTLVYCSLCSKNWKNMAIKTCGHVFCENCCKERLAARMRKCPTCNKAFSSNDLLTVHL
Description: pull-down; GST-tagged Bre1 (WT, truncated or mutant) or GST-RNF20 on glutathione agarose beads, incubated with 6xHis-tagged Rad51, hRad51 or FBH1 at 4 °C for 4 h; wash 20 mM Tris-HCl pH 7.4, 200 mM NaCl; Western blot or Coomassie.

Test [1] has as its target T4, GST-tagged truncated Bre1 1-504 aa (yeast (Saccharomyces cerevisiae), UniProt Q07457 1-504).
T4 construct: source: recombinant, GST-tagged
T4 sequence (looked up): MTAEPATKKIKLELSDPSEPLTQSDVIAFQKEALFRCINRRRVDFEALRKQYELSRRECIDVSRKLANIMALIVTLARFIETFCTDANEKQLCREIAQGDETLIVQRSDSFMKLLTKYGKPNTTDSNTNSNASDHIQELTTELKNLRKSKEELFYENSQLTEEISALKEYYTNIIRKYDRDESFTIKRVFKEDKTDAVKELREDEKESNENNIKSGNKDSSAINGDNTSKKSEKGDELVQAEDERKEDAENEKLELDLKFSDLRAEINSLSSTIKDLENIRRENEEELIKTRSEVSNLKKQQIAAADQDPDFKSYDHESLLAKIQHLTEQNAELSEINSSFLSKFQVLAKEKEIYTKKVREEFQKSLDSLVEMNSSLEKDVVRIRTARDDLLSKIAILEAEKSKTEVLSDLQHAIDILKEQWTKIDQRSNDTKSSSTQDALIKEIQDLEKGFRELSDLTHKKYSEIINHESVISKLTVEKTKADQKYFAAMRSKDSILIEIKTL
The description is as above.

The next test deals with T5, GST-Srs2 (yeast (Saccharomyces cerevisiae), UniProt P12954 1-1174).
T5 construct: Srs2 helicase, yeast; also called recombinant GST-Srs2
T5 sequence (looked up): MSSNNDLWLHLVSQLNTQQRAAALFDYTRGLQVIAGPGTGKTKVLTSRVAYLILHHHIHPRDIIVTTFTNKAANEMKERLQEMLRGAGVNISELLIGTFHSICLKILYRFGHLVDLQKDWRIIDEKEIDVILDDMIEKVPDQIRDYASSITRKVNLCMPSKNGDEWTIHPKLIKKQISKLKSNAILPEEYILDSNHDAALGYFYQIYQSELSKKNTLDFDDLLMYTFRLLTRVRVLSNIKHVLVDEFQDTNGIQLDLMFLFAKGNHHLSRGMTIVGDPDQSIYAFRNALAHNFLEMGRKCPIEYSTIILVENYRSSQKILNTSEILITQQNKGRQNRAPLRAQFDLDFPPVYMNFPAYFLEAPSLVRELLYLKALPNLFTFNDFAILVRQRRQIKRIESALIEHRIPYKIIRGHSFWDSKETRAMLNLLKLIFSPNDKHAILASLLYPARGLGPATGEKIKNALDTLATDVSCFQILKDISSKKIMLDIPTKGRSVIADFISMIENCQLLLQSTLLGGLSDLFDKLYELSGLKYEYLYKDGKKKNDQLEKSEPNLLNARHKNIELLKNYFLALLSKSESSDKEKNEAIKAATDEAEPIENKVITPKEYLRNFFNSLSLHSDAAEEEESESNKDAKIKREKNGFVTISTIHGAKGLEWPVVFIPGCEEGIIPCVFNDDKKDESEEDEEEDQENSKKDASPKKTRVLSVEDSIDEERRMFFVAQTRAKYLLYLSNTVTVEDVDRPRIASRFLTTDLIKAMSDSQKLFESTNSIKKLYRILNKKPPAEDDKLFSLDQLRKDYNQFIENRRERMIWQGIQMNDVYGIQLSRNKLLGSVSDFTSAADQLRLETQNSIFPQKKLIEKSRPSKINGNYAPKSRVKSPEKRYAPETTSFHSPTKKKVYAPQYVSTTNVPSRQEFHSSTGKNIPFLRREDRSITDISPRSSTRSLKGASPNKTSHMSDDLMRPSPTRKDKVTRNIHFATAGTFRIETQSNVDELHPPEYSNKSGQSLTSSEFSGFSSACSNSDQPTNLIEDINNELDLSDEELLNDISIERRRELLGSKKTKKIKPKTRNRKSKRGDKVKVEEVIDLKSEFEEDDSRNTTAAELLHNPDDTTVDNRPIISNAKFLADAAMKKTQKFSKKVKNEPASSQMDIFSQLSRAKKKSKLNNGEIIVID
Description: pull-down; GST-Srs2 on beads with 6xHis-tagged WT, truncated or mutated Bre1; detected by Western blot with an anti-His antibody; whether ssDNA was included is not told.

In the case of B1, the binding result in the test with GST-RNF20 is given as “binds”.

B2: GST-RNF20N (domain or fragment, human, UniProt Q5VTR2 1-300, looked up)
chain: MSGIGNKRAAGEPGTSMPPEKKAAVEDSGTTVETIKLGGVSSTEELDIRTLQTKNRKLAEMLDQRQAIEDELREHIEKLERRQATDDASLLIVNRYWSQFDENIRIILKRYDLEQGLGDLLTERKALVVPEPEPDSDSNQERKDDRERGEGQEPAFSFLATLASSSSEEMESQLQERVESSRRAVSQIVTVYDKLQEKVELLSRKLNSGDNLIVEEAVQELNSFLAQENMRLQELTDLLQEKHRTMSQEFSKLQSKVETAESRVSVLESMIDDLQWDIDKIRKREQRLNRHLAEVLERVN
notes: also called N-terminal fragment RNF20N (1-300 aa)
For B2, the binding result with 6xHis-hRad51 was “binds”.

B3: 6xHis-Rad51 (natural protein, yeast (Saccharomyces cerevisiae), UniProt P25454 1-400, looked up)
chain: MSQVQEQHISESQLQYGNGSLMSTVPADLSQSVVDGNGNGSSEDIEATNGSGDGGGLQEQAEAQGEMEDEAYDEAALGSFVPIEKLQVNGITMADVKKLRESGLHTAEAVAYAPRKDLLEIKGISEAKADKLLNEAARLVPMGFVTAADFHMRRSELICLTTGSKNLDTLLGGGVETGSITELFGEFRTGKSQLCHTLAVTCQIPLDIGGGEGKCLYIDTEGTFRPVRLVSIAQRFGLDPDDALNNVAYARAYNADHQLRLLDAAAQMMSESRFSLIVVDSVMALYRTDFSGRGELSARQMHLAKFMRALQRLADQFGVAVVVTNQVVAQVDGGMAFNPDPKKPIGGNIMAHSSTTRLGFKKGKGCQRLCKVVDSPCLPEAECVFAIYEDGVGDPREEDE
notes: Rad51 recombinase, yeast; also called 6xHis-tagged Rad51; yeast Rad51; source: E. coli BL21 (DE3), purified (Ni-NTA)
For the molecule B3, the binding result (with 6xHis-Bre1; with GST-Bre1; in test [1]) was “binds” throughout.

B4: 6xHis-tagged Bre1 truncation 1-501 aa (domain or fragment, yeast (Saccharomyces cerevisiae), UniProt Q07457 1-501, looked up)
chain: MTAEPATKKIKLELSDPSEPLTQSDVIAFQKEALFRCINRRRVDFEALRKQYELSRRECIDVSRKLANIMALIVTLARFIETFCTDANEKQLCREIAQGDETLIVQRSDSFMKLLTKYGKPNTTDSNTNSNASDHIQELTTELKNLRKSKEELFYENSQLTEEISALKEYYTNIIRKYDRDESFTIKRVFKEDKTDAVKELREDEKESNENNIKSGNKDSSAINGDNTSKKSEKGDELVQAEDERKEDAENEKLELDLKFSDLRAEINSLSSTIKDLENIRRENEEELIKTRSEVSNLKKQQIAAADQDPDFKSYDHESLLAKIQHLTEQNAELSEINSSFLSKFQVLAKEKEIYTKKVREEFQKSLDSLVEMNSSLEKDVVRIRTARDDLLSKIAILEAEKSKTEVLSDLQHAIDILKEQWTKIDQRSNDTKSSSTQDALIKEIQDLEKGFRELSDLTHKKYSEIINHESVISKLTVEKTKADQKYFAAMRSKDSILIEI
notes: source: recombinant, 6xHis-tagged
For B4, in the test with GST-Srs2, the binding result is given as “binds”.
